This data set can be described thus: soluble on expression in E. coli; label from the status in PepcDB or PDB records.
Consider “MVRVCACLIVKNEAAHLARCLGSVQPWVDDIVVVDTGSTDETPAIARQFTERLFTFPWQDDFAAARNYSLEQATGDWILVIDADEVLVTLQEPPVPLGQQLAGSPFTAYQLLRREIGTGEQFSDFAIVRLFRNLPTLRYQGRFHEQLVSTAAAPLTIGTLETLRIDHYGYQPAQIQAKMRDRNIPILERIRASEGLPLHLLFALADMYQAVNNPVEAENCYQELFDRLLPHLLSGQLPENAPGALPEILNQLGRRLLATGDHDTLQLLCQQGLAWFPTYPPLNDLAGRWLMTLGFPLGATAYFEYCLELGRTNGYSKQMIFPLGYVREIAAEQLGRAYEALGDRERAAAAFAQAAALRQGKAHPQLEHHHHHH”, for which the “soluble on expression in E. coli” value is “soluble”. Next, “MVRVPLTAEELERGQRLGELLRSARGDMSMVTVAFDAGISVETLRKIETGRIATPAFFTIAAVARVLDLSLDDVAAVVTFGPVSTS”: “soluble”. The result for “MVSDEDELNLLVIVVDANPIWWGKQALKESQFTLSKCIDAVMVLGNSHLFMNRSNKLAVIASHIQESRFLYPGKNGRLGDFFGDPGNPPEFNPSGSKDGKYELLTSANEVIVEEIKDLMTKSDIKGQHTETLLAGSLAKALCYIHRMNKEVKDNQEMKSRILVIKAAEDSALQYMNFMNVIFAAQKQNILIDACVLDSDSGLLQQACDITGGLYLKVPQMPSLLQYLLWVFLPDQDQRSQLILPPPVHVDYRAACFCHRNLIEIGYVCSVCLSIFCNFSPICTTCETAFKISLPPVLKAKKKKLKVSA” reads “not soluble”; that for “MVSFTKDQIADIIRKVGDGTSPEALESAVRNVLAKLQSEGLSAPASQGGKLDASSYPLGIKRKDLVKSATGLGLDDITIEKVVSGEIQFDDIKTRPETLAYQNEIAKSVNRPNLANNLARAGEMTRIPDARLLEMYNFLRPYRAAKQEMISMAEELEQKYQAPACAKLVREAADVYEKNNRLKGDR”, “not soluble”. As to “MVSKELVVCHLYGNLLNTYGDNGNLLMLKYLTEKMGVTFRSEIISIYEPFDPEKYDLVFVGGGQDFEQLIISEDIQNKKEALTSYIENDGVLLAICGGYQLLGHYYVGAQGEKIKGIGALDHYTLSQDNNRFIGDIEIYNEEFDETYYGFENHNGMTFLGEGERPLGTVKQGKGNNGQDNGEGVVYKNVFGSYFHGPILARNKNLGIRLIRTALEKKYGEPIAIPETLYK”, the “soluble on expression in E. coli” value is “not soluble”. The result for “MVSKKKALEMIDVIANMFPDAECELKHDNPFELTIAVLLSAQCTDVLVNRVTTELFKKYKTPEDYLAVSDEELMNDIRSIGLYRNKAKNIKKLCQSLIDQFNGEIPQTHKELESLAGVGRKTANVVMSVAFDEPSLAVDTHVERVSKRLGINRWKDNVRQVEDRLCSVIPRDRWNRSHHQLIFFGRYHCLARKPKCDICPLLEDCREGQKRYKASLKEA” reads “not soluble”; that for “MVSPILANIALNGIESIHRSKAKGQIIEPSVRYADDMVIILKPKDNAIEILERISEFLRKRGMQVSQKKTKITAATDGFDFLGWHFKVQKNGKFKSTPSVDNFKAFRKKVKHIVNNSNYGSIVKAQKLSPIVRGWRNYHKFCKMDGSKHSLWFLNHRTYTVFTKESKHTRQSSEKLIKKAFPLVPNSENKHVMVQGIKSPYDGNLTCWSKRNSKLYDGHTSKALTKQNHKCASCGLKFIGEERVHLHHRDGNHDNWKPNNLEALHESCHDYRHMSKTERLEHHHHHH”, “not soluble”; that for “MVSSLFINPFSEDAREIVRKYGSLDTIDDTRDELLEIGRRTRGQNLADNSLLPASIAELAVKRLEWYLRRQRKDFNHRDYAYLMNPEIEEYDVLAFYILAQAAGAGFMKASREARLVVESAGAMVEDRLNVFGGEREEIMAEVLYELGSEGLRWTELADLLGSGKLKLTDLILKEGRVIIDRDEFITSFQDSIRDRSPDRLYDILVGLEVRETMISRMIMQRTEEYIGMVREMSSTVEVHPLILETAERIRETVEEIMSFTGGPVKSARPGKLVQEAFPPCIRGTLDGVRSGNRNDAIVLLLTSFISYARLYPSVFRDRTPMKVSDLDPDLRITLGEILPVIYDAADRCEPPLFEDDPQEKLNITAKLGFGVHDMPELENEGESKWYTPMSCEKIKIHLPDLCRPDKLCSSISNPLTYYNRKRWKLRSSGEKEELEHHHHHH”, “not soluble”.

Turning to “MVSSQPKYDLIREVGRGSYGLVYEALVRRTGQRVAVKKIRCQAPENVELALREFWALSSIQSQHPNVIHLEECVLQRDGMVQRMLHGSSSVLYLP”, the “soluble on expression in E. coli” value is listed as “not soluble”. Next, “MVSTYDEIEIEDMTFEPENQMFTYPCPCGDRFQIYLDDMFEGEKVAVCPSCSLMIDVVFDKEDLAEYYEEAGIHPPEPIAAAA”: “soluble”; “MVTKEQVVEALEGIVDPFLHKTLKETSAIKEVTVKPEKEHVSVKIAIVKTGTAEQMQLQSGIVKLVKELGAATVGLRFAEFTEEELAQFAPEQEEEQSESLLSPNSKTTFLAVASGKGGVGKSTVSVNLAVALARLGKKVGIIDADIYGFSVPDMMGIEKRPIVRGDKIIPVERLGVKVISMGFFVEDNAPVIWRGPMLGKMLNHFFTEVEWGDLDYLVLDLPPGTGDVALDVHSMLPSCKEIIVTTPHPTAAFVAARAGAMALRTEHSILGVVENMAYFESKVTGEKEYVFGKGGGDKLATELQTNVLGRIPLQQPDWNKEDFAPSVYEDTHTTGIIYSKIAETVIDKTAVTQKLEHHHHHH”: “soluble”; “MVTKFLIFVSENQQLTSKFNLVTRQNADLKIGLRGVLFSIQGLREELSVAKQRIEEMKEDSFFESMPKLEREAPAFMDSPAETSSPDVEMEDVVYEEVVKETEVANF”: “not soluble”. The result for “MVTRVLIVGDGDAGTIMANKLRFHTDRRDVDITVVGNSKDHYFKPDGVHISFNMVDYKKSVKPTEFLFNYGVNYIRDTVSRIDVADHSVQTTGGRNLDYDYLIIATGDRFTPEDVPGYAESAKHFYDLPHALELQKEIKGFKGGKVVIGQASIPIMCPPAPYEFTFLLEEYLNFHGLKDKTEIHYIYPLNRVFTIPNVADFVAKRMEERGIITHTLFNVESIDPKNKKIQSLEGESINYDLLVLIPPHRGQKVITDSGLADESGYIDVDKYKLNYKDYDNVFAIGDATNLPVSKAGATAHFEALYLSNRIAAETSGNVYNELYEGDVACTTVTGYEKGLTLYFNYNKPPRANYDSKLDYFLKWQSGDTFFSSMLRGVALEHHHHHH” reads “not soluble”; that for “MVTTLTPVICESAPAAAASYSHAMKVNNLIFLSGQIPVTPDNKLVEGSIADKAEQVIQNIKNVLEASNSSLDRVVKVNIFLADINHFAEFNSVYAKYFNTHKPARSCVAVAALPLGVDMEMEAIAAERD”, “soluble”; that for “MVVAKPTAAVSIEDLIKKHSDVDPFLVKKWERIFSLFFDRNASHQVDWGDFYLVVKKVRDIYGAESVQTGFAKKSLAALWEGLCSIADADKDQLISIDEWIGLLKKTDAKTEPKWFKDYQNFMFKLFDVSCDGVMDLAEYTDGMSTYGFDQSECDAAFHKFSVDKKGQYVPQMKPETWNTYFHQLFYSTNKSDVGNHLFGIIDF”, “not soluble”. The result for “MVVIIPPKLSVSTLMGVLKGRSAIRLFNKFPHVRKKQWGNSFWARGYFVDTVGVNEEIIRRYVRHQDKQDQEHEAQLSLQMM” reads “soluble”; that for “MVVIMLNYDDIKIIDEIYSEGYLFAQYGIYIKKKFKQKIFKIPVDIGLGCPHKKNGGCIFCPEMGRPISVKYCSAKIPLKEQIKKQMENQKKKGFKKFYIYFYPGTNTYAPAEKLKEIWDFSLSYKEVIGLSIGTRPDCLEKEKLDILAEYVENGYDIWIDLGVQSMHQKTLEILNRGHDVSDIIKAIKDCHKRGIKVCGHVILGLPGESWKEMMETAKILSLLEIEAVKIYPLVVVKGTKLEEMYW”, “not soluble”. Take “MVYPRLLINLKEIEENARKVVEMASRRGIEIVGVTKVTLGDPRFAETLRKAGIGILGESRIRNVLRMKKAGIEGPFMLLRLPMMSELVEDVKHFDYIMVSDPDVAKKVDELSREMKRNVKIIYMIDVGDLREGVWFEKAVEEIAQCRGANIVGIGTNFGCYGGIIPTREKFEILLDIKEKLEKNHGFNIEIVSGGNTPALYALENGEIPEGINQLRIGEAIVLGRDITNNRVIDWLSQNTFLIEAEVIEVKEKPSVPLGKRGLDVFGRKVDFVDRGIRKRAICALGEQDIDSRGLIPVDKGVEVLHASSDHIVLDVTDFGDVKVGDVFRFRMTYSCLLKAMTSPFVEKVYEPSI”: the “soluble on expression in E. coli” value was “soluble”. For the sequence “MWDERFSQSEYVYGTEPNDFLVSVANQIPQGKILCLAEGEGRNACFLASLGYEVTAVDQSSVGLAKAKQLAQEKGVKITTVQSNLADFDIVADAWEGIVSIFCHLPSSLRQQLYPKVYQGLKPGGVFILEGFAPEQLQYNTGGPKDLDLLPKLETLQSELPSLNWLIANNLERNLDEGAYHQGKAALIQLLGQKLEHHHHHH”, the “soluble on expression in E. coli” value is given as “soluble”. Next, “MWGRYEKLRIFYDPTRAIYDSGADYLTREKHRLVVIANSAWGLLLNLSCYYDEVLEKRKIPFGKQEIDDDMDKVSALKRKFKDISEIKVGDGWEYPFNYEQGMKELDEVLLKYIPFFEEER”: “not soluble”; “MYAKSLNGDAFSNEAKQKAIELIKQDLGQIDLVVYSLASPVRKMPDTGELVRSALKPIGETYTSTAVDTNKDVIIEASVEPATEQEIADTVTVMGGQDWELWIQALEEAGVLAEGCKTVAYSYIGTELTWPIYWDGALGRAKMDLDRAATALNEKLAAKGGTANVAVLKSVVTQASSAIPVMPLYIAMVFKKMREQGVHEGCMEQIYRMFSQRLYKEDGSAPEVDDHNRLRLDDWELRDDIQQHCRDLWPQITTENLRELTDYDMYKEEFIKLFGFGIEGIDYDADVNPEVEFDVIDIE”: “not soluble”; “MYALEIEQLRKTYAGGFEALKGISLQVKKGDFYALLGPNGAGKSTTIGIISSLVNKTSGKVTVFGYDLDSQLELAKQKLGLVPQEFNFNPFETVEQIVLQQAGYYGVPKALAKERAKKYLTQLDLWEKRSERARNLSGGMKRRLMIARALMHEPQLLILDEPTAGVDIELRRSMWEFLKQINAQGVTIILTTHYLEEAEMLCRHIGIIQRGELIENTTMKSLLGKLHVETFVLDVDGNAPIAPLQGVVKQQMVEGSLEIELEKSQGINHVFTQLTEQGVKVLSMRNKVNRLEELFVSIVNSGKRG”: “not soluble”. In the case of “MYARYAGLIFDMDGTLLDTEPTHRKAWREVLGRYGLRFDEQAMVALNGSPTWLIAQSIIELNHADLDPLSLAREKTDAVKSILLDCVEPLPLVEVVKAWHGRRPMSVGTGSESAIAEALLAHLGLRRYFDAVVAADHVQHHKPAPDTFLLCAQRMGVMPTQCVVFEDADFGLQAARAAGMDAVDVRLL”, the “soluble on expression in E. coli” value is given as “not soluble”. Next, “MYDKLLPMERIHIEVFEPFNGEAIEGKYSYVLLCRDYRSSFMWLLPLKSTKFKHLIPVVSSLFLTFARVPIFVTSSTLDKDDLYDICEEIASKYGLRIGLGLKSSARFHTGGILCIQYALNSYKKECLADWGKCLRYGPYRFNRRRNKRTKRK”: “soluble”. Take “MYFMEILTCIKQVPGTTSVEVDETTGVLKRDGVDSKMNPYDLYALETALRIKEDKKANLKVLSMGPPQAKKVIEESFMMGADEGALISDRRFGGADVLATSYTISQGIKKMGKVDLIICGKQTTDGDTAQVGPEVAEFLDIPHVTNVTKLIEVKDESIVVEIDMPNDLQVCEIEYPCLITVEKDIFQPRLPSFKLKLNTKDREIPVYSLDDFEDKNENNYGLNGSPTQVVRIFPPKPNTDKNIVRGNADELSFALVNKLEELKLV”: the “soluble on expression in E. coli” value is “not soluble”. The result for “MYFVDRSKIEKTLGFFEHQLALFDSQTDWQSEIGELALQRIGHLLIECILDTGNDMIDGFIMRDPGSYDDIMDILVDEKVVTEKEGDELKKLIAYRKTLVQQYLLADSGELYRLIKAHQTALQDFPKRIRSYLETELGPVSAFKLEHHHHHH” reads “soluble”.

The record behind these values is the DeepSol protein solubility set.
